One block for each binder: values may come before it.
Tests used:
[1] = target: T1, Tim-3 (form used in the assay not stated) (human, UniProt Q8TDQ0 22-202, limits assumed); test: SPR, Fab, mean of Test 1 and Test 2
[2] = target: T1, Tim-3 (form used in the assay not …); test: SPR, Fab, Test 1
[3] = target: T1, Tim-3 (form used in the assay not …); test: SPR, Fab, Test 2
Tim-3-his [4] = target: T2, Tim-3-his (human, UniProt Q8TDQ0 22-202, limits assumed); test: SPR (BIAcore T-200), antibody captured by anti-human Fab, Tim-3-his flowed
T2 construct: not shown: his tag

Tim-3-his [5] = target: T2, Tim-3-his; test: BLI (ForteBio Octet), antibody captured on protein A tips, dipped in Tim-3-his solution
Tim-3-mIgG2a = Tim-3-mIgG2a (human; mouse, UniProt Q8TDQ0 22-202); test: ELISA on Tim-3-mIg, absorbance at OD450nm against antibody concentration
[6] = target: T1, Tim-3 (form used in the assay not …); test: ELISA on Tim-3, absorbance at OD450nm against antibody concentration
[7] = target: T3, Human Fc-tagged Tim-3 IgV domain (human, UniProt Q8TDQ0 22-130, limits assumed); test: SPR (BIAcore T-200), Fc-tagged Tim-3 IgV domain captured by anti-human IgG, antibody flowed
T3 construct: not shown: human Fc tag
T3 sequence: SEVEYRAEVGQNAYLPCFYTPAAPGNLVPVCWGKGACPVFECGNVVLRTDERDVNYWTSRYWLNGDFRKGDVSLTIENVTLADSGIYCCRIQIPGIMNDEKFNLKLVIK

B1: hu425-2-2 Fab (Fab, V domains shown)
VH: EVQLVESGGGLVQPGGSLRLSCAASGFTFSRYAMSWVRQAPGKGLEWVAAISSGGSLYYPDSVKGRFTISRDNAKNTLYLQMNSLRAEDTAVYYCARGREADGGYFDYWGQGTLVTVSS
VL: EIVMTQSPATLSVSPGERATLSCRASESVEYYGTSLMQWYQQKPGQAPRLLIYAASNVESGIPARFSGSGSGTEFTLTISSLQSEDFAVYYCQQSLKVPLTFGGGTKVEIK
notes: Fab prepared from the mAb with the Pierce Fab Preparation Kit; Only the variable domains are tied to the name. hu425s were engineered in the human IgG1 format
Kd [1]: 0.419 nM | Kd [2]: 0.434 nM | koff [2]: 0.00074 s⁻¹ | kon [2]: 1.71e+06 M⁻¹ s⁻¹ | Kd [3]: 0.404 nM | koff [3]: 0.000795 s⁻¹ | kon [3]: 1.97e+06 M⁻¹ s⁻¹

B2: Hu425-2-3b in human IgG4 format with S228P mutation (antibody, V domains shown)
VH: EVQLVESGGGLVQPGGSLRLSCAASGFTFSRYAMSWVRQAPGKGLEWVAAISSGGSLYYPDSVKGRFTISRDNAKNTLYLQMNSLRAEDTAVYYCARGREADGGYFDYWGQGTLVTVSS
VL: EIVLTQSPATLSVSPGERATLSCRASESVEYYGTSLMQWYQQKPGQAPRLLIYAASNVESGIPARFSGSGSGTEFTLTISSLQSEDFAVYYCQQSLKVPLTFGGGTKVEIK
Kd (Tim-3-his [4]): 1.47 nM | koff (Tim-3-his [4]): 0.000778 s⁻¹ | kon (Tim-3-his [4]): 528000 M⁻¹ s⁻¹

B3: hu425-1-1 Fab (Fab, V domains shown)
VH: EVQLVESGGGLVQPGGSLRLSCAASGFTFSRYAMSWVRQAPGKGLEWVAAISSGGSLYFPDSVKGRFTISRDNAKNSCYLQMNSLRAEDTAVYYCARGREADGGYFDYWGQGTLVTVSS
VL: DIVLTQSPATLSVSPGERATLSCRASESVEYYGTSLMQWYQQKPGQAPRLLIYAASNVESGVPARFSGSGSGTDFTLTISSLQSEDFAVYYCQQSMKVPLTFGGGTKVEIKR
notes: Fab prepared from the mAb with the Pierce Fab Preparation Kit
Kd [1]: 0.253 nM | Kd [2]: 0.159 nM | koff [2]: 0.000108 s⁻¹ | kon [2]: 679000 M⁻¹ s⁻¹ | Kd [3]: 0.346 nM | koff [3]: 0.000435 s⁻¹ | kon [3]: 1.26e+06 M⁻¹ s⁻¹

B5: hu425-2-3b (antibody, V domains shown)
VH: EVQLVESGGGLVQPGGSLRLSCAASGFTFSRYAMSWVRQAPGKGLEWVAAISSGGSLYYPDSVKGRFTISRDNAKNTLYLQMNSLRAEDTAVYYCARGREADGGYFDYWGQGTLVTVSS
VL: EIVLTQSPATLSVSPGERATLSCRASESVEYYGTSLMQWYQQKPGQAPRLLIYAASNVESGIPARFSGSGSGTEFTLTISSLQSEDFAVYYCQQSLKVPLTFGGGTKVEIK
notes: Full chains are not tied to the name
EC50 (read off the curve) (Tim-3-mIgG2a): ~0.01 µg/mL

B6: hu425-2-3b Fab (Fab, V domains shown)
VH: EVQLVESGGGLVQPGGSLRLSCAASGFTFSRYAMSWVRQAPGKGLEWVAAISSGGSLYYPDSVKGRFTISRDNAKNTLYLQMNSLRAEDTAVYYCARGREADGGYFDYWGQGTLVTVSS
VL: EIVLTQSPATLSVSPGERATLSCRASESVEYYGTSLMQWYQQKPGQAPRLLIYAASNVESGIPARFSGSGSGTEFTLTISSLQSEDFAVYYCQQSLKVPLTFGGGTKVEIK
notes: Fab prepared from the mAb with the Pierce Fab Preparation Kit; Only the variable domains are tied to the name
Kd [1]: 0.361 nM | Kd [2]: 0.356 nM | koff [2]: 0.00057 s⁻¹ | kon [2]: 1.6e+06 M⁻¹ s⁻¹ | Kd [3]: 0.366 nM | koff [3]: 0.00064 s⁻¹ | kon [3]: 1.75e+06 M⁻¹ s⁻¹

B8: Ab2 in human IgG4 format with S228P mutation (antibody, V domains shown)
VH: EVQLLESGGGLVQPGGSLRLSCAAASGFTFSSYDMSWVRQAPGKGLDWVSTISGGGTYTYYQDSVKGRFTISRDNSKNTLYLQMNSLRAEDTAVYYCASMDYWGQGTTVTVSS
VL: DIQMTQSPSSLSASVGDRVTITCRASQSIRRYLNWYHQKPGKAPKLLIYGASTLQSGVPSRFSGSGSGTDFTLTISSLQPEDFAVYYCQQSHSAPLTFGGGTKVEIKR
notes: Known Tim-3 antibody, generated in human IgG4 format with S228P mutation
Kd (Tim-3-his [4]): 19.4 nM | koff (Tim-3-his [4]): 0.0122 s⁻¹ | kon (Tim-3-his [4]): 627000 M⁻¹ s⁻¹

B10: ch425 Fab (Fab, V domains shown)
VH: EVKLVESGGGLVKPGGSLKLSCAASGFTFSRYAMSWVRQIPEKRLEWVAAISSGGSLYFPDSVKGRFTISRDNARNICYLQMNSLRSDDTAMYYCARGREADGGYFDYWGQGTTLTVSS
VL: DIVLTQSPASLAVSLGQRATISCRASESVEYYGTSLMQWYQQKPGQPPKLLIYAASNVESGVPARFSGSGSGTDFSLNIHPVEEDDIAMYFCQQSMKVPLTFGAGTKLELKR
notes: as for B3
Kd [2]: 0.122 nM | koff [2]: 0.000204 s⁻¹ | kon [2]: 1.67e+06 M⁻¹ s⁻¹

B11: Ab1 in human IgG4 format with S228P mutation (antibody, V domains shown)
VH: QVQLVQSGAEVKKPGSSVKVSCKASGYTFTSYNMHWVRQAPGQGLEWMGDIYPGNGDTSYNQKFKGRVTITADKSTSTVYMELSSLRSEDTAVYYCARVGGAFPMDYWGQGTTVTVSS
VL: AIQLTQSPSSLSASVGDRVTITCRASESVEYYGTSLMQWYQQKPGKAPKLLIYAASNVESGVPSRFSGSGSGTDFTLTISSLQPEDFATYFCQQSRKDPSTFGGGTKVEIK
notes: as for B8
Kd (Tim-3-his [4]): 0.271 nM | koff (Tim-3-his [4]): 0.00012 s⁻¹ | kon (Tim-3-his [4]): 444000 M⁻¹ s⁻¹

Other lines, results leading:

binding result (Tim-3-his [5]): no binding
B4: hybrid antibody 425 HC/Ab1 LC (antibody, V domains shown)
VH: EVQLVESGGGLVQPGGSLRLSCAASGFTFSRYAMSWVRQAPGKGLEWVAAISSGGSLYYPDSVKGRFTISRDNAKNTLYLQMNSLRAEDTAVYYCARGREADGGYFDYWGQGTLVTVSS
VL: AIQLTQSPSSLSASVGDRVTITCRASESVEYYGTSLMQWYQQKPGKAPKLLIYAASNVESGVPSRFSGSGSGTDFTLTISSLQPEDFATYFCQQSRKDPSTFGGGTKVEIK

binding result [6]: no binding
B7: hu425-2F-1 (antibody, human IgG1, kappa, V domains shown)
VH: EVQLVESGGGLVQPGGSLRLSCAASGFTFSRYAMSWVRQAPGKGLEWVAAISSGGSLYFPDSVKGRFTISRDNAKNSCYLQMNSLRAEDTAVYYCARGREADAGYFDYWGQGTLVTVSS
VL: DIVLTQSPATLSVSPGERATLSCRASESVEYYGTSLMQWYQQKPGQAPRLLIYAASNVESGVPARFSGSGSGTDFTLTISSLQSEDFAVYYCQQSMKVPLTFGGGTKVEIKR
notes: Single amino acid mutation from hu425-1-1; also called G103A

Kd [7]: 0.058 nM | koff [7]: 9.33e-05 s⁻¹ | kon [7]: 1.59e+06 M⁻¹ s⁻¹
B9: mu425 (antibody, V domains shown)
VH: EVKLVESGGGLVKPGGSLKLSCAASGFTFSRYAMSWVRQIPEKRLEWVAAISSGGSLYFPDSVKGRFTISRDNARNICYLQMNSLRSDDTAMYYCARGREADGGYFDYWGQGTTLTVSS
VL: DIVLTQSPASLAVSLGQRATISCRASESVEYYGTSLMQWYQQKPGQPPKLLIYAASNVESGVPARFSGSGSGTDFSLNIHPVEEDDIAMYFCQQSMKVPLTFGAGTKLELK
notes: Murine hybridoma mAb, purified

— patent US20240076375A1 (BEIGENE, published 2024)
